Assay results: patent US20190153059A1 (ADEPTHERA, published 2019)
* marks the point of attachment. Palmitoyl = CCCCCCCCCCCCCCCC(=O)*

B1: NTSR1 agonist and CLR/RAMP antagonist MRL (SEQ ID NO: 224) (peptide)
peptide: XLYENKPRRPYILKVQKLSAPVDPSSPHSY
modifications: not fully specified; Pyr(glu)- at N-terminus; miniPEG between LYENKPRRPYIL and K(Pal); K(Pal); -NH2
B2: AGTRL1 and CLR/RAMP agonist MRL (SEQ ID NO: 228) (peptide)
peptide: XRPRLSHKGPLPFKGCRFGTCTVQKLAHQIYQFTDKDVAPRSKISPQGY
modifications: not fully specified; (Glp) at N-terminus; (Nle) in RPRLSHKGP(Nle)PF; miniPEG before K(PAL); K(PAL); -NH2
B3: BDKRB1 antagonist and CLR/RAMP agonist MRL (SEQ ID NO: 231) (peptide)
peptide: KRPPGFSIKGCRFGTCTVQKLAHQIYQFTDKDVAPRSKISPQGY
modifications: Ace- at N-terminus; D/Nal in KRPPGFS-D/Nal-I; miniPEG before K(PAL); K(PAL); -NH2
B4: SSTR2 and CLR/RAMP MRL (SEQ ID NO: 218) (peptide)
peptide: FCFWKTCTKVQKLAHQIYQFTDKDVAPRSKISPQGY
modifications: (D-Phe) at position 1 and (D-Trp) in (D-Phe)CF(D-Trp)KTCT; miniPEG before K(Pal); K(Pal); -NH2

What follows are molecules tested against T1, CLR/RAMP2 receptor (UniProt Q16602 23-461; O60895 43-175, limits assumed) (assay: cell-based or functional assay).
T1 sequence (Q16602 23-461 limits assumed, chain 1 of 2): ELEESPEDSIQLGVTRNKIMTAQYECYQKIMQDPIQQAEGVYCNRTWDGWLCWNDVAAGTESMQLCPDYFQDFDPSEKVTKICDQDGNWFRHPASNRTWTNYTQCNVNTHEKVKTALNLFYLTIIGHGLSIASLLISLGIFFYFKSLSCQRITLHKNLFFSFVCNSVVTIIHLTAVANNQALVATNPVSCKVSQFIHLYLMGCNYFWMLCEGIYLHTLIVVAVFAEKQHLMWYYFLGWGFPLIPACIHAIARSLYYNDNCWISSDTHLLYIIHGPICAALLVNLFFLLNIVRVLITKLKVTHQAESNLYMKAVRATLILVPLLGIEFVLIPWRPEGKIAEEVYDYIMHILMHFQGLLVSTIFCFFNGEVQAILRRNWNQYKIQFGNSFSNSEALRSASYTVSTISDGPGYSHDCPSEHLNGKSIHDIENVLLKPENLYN
T1 sequence (O60895 43-175 limits assumed, chain 2 of 2): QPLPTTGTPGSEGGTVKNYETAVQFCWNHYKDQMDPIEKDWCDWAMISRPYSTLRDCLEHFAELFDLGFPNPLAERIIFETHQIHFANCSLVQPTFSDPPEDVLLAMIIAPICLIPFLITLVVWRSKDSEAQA

For “Wild type ADM positive (human ADM positive control) (from UniProt P35318 95-146) (peptide)”, the CLR/RAMP2 Max Activity (% of positive controls) was 100.

Biological target: T1, CLR/RAMP2 receptor
Assay: cell-based or functional assay
Remark: another data set of the same source

First: Palmitoyl-KGCRFGTCTVQKLAHQIYQFTDKDVAPRSKISPQGY-NH2 (ends and bridges not checked) [SEQ ID NO: 103]
Second: miniPEG-KGCRFGTCTVQKLAHQIYQFTDKDSAPVDPSSPHSY-NH2 (cysteine pairing not given here; also: K(PAL) present, lysine not given here) [SEQ ID NO: 48]
The “CLR/RAMP2 EC50” value of the first is 3.5-fold higher: 0.7 nM for the first, 0.2 nM for the second.

Palmitoyl-KCRFGTCTVQKLAHQIYQFTDKDKDNSAPVDPSSPHSY-NH2 (ends and bridges not checked) [SEQ ID NO: 44] and Palmitoyl-KGCRFGTCTVQKLAHQIYQFTDKDSAPVDPSSPHSY-NH2 (cysteine pairing not given here) [SEQ ID NO: 92] are within 1.5-fold of each other in “CLR/RAMP2 EC50” value: 0.2 nM for the first, 0.3 nM for the second.

Going from miniPEG-KGCRFGTCTVQKLAHQIYQFTDKDKDNVAPRSKISPQGY-NH2 (ends and bridges not checked; also: K(PAL), position not given here) [SEQ ID NO: 69] to miniPEG-KGCRFGTCTVQKLAHQIYQFTDKDVAPRSKISPQGY-NH2 (ends and bridges not checked; also: K(PAL), position not given here) [SEQ ID NO: 101], the “CLR/RAMP2 EC50” value falls from 0.6 nM to 0.3 nM (2-fold).

Palmitoyl-GCRFGTCTVQKLAHQIYQFTDKDKDNSAPVDPSSPHSY-NH2 (ends and bridges not checked) [SEQ ID NO: 45] was tested, and the “CLR/RAMP2 EC50” value was 0.3 nM.

These molecules were tested against T2, CLR/RAMP1 receptor (UniProt Q16602 23-461; O60894 27-148, limits assumed) (assay: cell-based or functional assay).
T2 sequence (Q16602 23-461 limits assumed, chain 1 of 2): as the sequence (Q16602 23-461 limits assumed, chain 1 of 2) above
T2 sequence (O60894 27-148 limits assumed, chain 2 of 2): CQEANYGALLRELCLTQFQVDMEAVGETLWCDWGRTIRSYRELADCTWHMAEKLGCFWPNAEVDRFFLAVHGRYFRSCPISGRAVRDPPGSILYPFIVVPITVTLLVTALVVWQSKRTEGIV

Going from Palmitoyl-KGCRFGTCTVQKLAHQIYQFTDKDVAPRSKISPQGY-NH2 (ends and bridges not checked) [SEQ ID NO: 103] to miniPEG-KGCRFGTCTVQKLAHQIYQFTDKDSAPVDPSSPHSY-NH2 (cysteine pairing not given here; also: K(PAL) present, lysine not given here) [SEQ ID NO: 48], the “CLR/RAMP1 EC50” value falls from 4.5 nM to 0.3 nM (15-fold).

Compared with Palmitoyl-KCRFGTCTVQKLAHQIYQFTDKDKDNSAPVDPSSPHSY-NH2 (ends and bridges not checked) [SEQ ID NO: 44], Palmitoyl-KGCRFGTCTVQKLAHQIYQFTDKDSAPVDPSSPHSY-NH2 (cysteine pairing not given here) [SEQ ID NO: 92] is 4-fold higher in “CLR/RAMP1 EC50” value: 0.1 nM for the first, 0.4 nM for the second.

Going from Palmitoyl-GCRFGTCTVQKLAHQIYQFTDKDKDNSAPVDPSSPHSY-NH2 (ends and bridges not checked) [SEQ ID NO: 45] to miniPEG-KGCRFGTCTVQKLAHQIYQFTDKDKDNSAPVDPSSPHSY-NH2 (cysteine pairing not given here; also: K(PAL) present, lysine not given here) [SEQ ID NO: 28], the “CLR/RAMP1 EC50” value rises from 0.1 nM to 0.3 nM (3-fold).

miniPEG-KGCRFGTCTVQKLAHQIYQFTDKDKDNVAPRSKISPQGY-NH2 (ends and bridges not checked; also: K(PAL), position not given here) [SEQ ID NO: 69] was tested, and the “CLR/RAMP1 Max Activity” value was 70 % of positive control.

These molecules were tested against T3, CLR/RAMP3 receptor (UniProt Q16602 23-461; O60896 24-148, limits assumed) (assay: cell-based or functional assay).
T3 sequence (Q16602 23-461 limits assumed, chain 1 of 2): as the sequence (Q16602 23-461 limits assumed, chain 1 of 2) above
T3 sequence (O60896 24-148 limits assumed, chain 2 of 2): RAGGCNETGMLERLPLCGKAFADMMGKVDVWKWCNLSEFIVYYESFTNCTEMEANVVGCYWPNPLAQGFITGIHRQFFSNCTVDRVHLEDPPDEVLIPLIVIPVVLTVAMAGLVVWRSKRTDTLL

First: Palmitoyl-KGCRFGTCTVQKLAHQIYQFTDKDVAPRSKISPQGY-NH2 (ends and bridges not checked) [SEQ ID NO: 103]
Second: miniPEG-KGCRFGTCTVQKLAHQIYQFTDKDSAPVDPSSPHSY-NH2 (cysteine pairing not given here; also: K(PAL) present, lysine not given here) [SEQ ID NO: 48]
The “CLR/RAMP3 EC50” value of the first is 4.3-fold higher: 0.3 nM for the first, 0.07 nM for the second.

Compared with Palmitoyl-KGCRFGTCTVQKLAHQIYQFTDKDSAPVDPSSPHSY-NH2 (cysteine pairing not given here) [SEQ ID NO: 92], miniPEG-KGCRFGTCTVQKLAHQIYQFTDKDKDNVAPRSKISPQGY-NH2 (ends and bridges not checked; also: K(PAL), position not given here) [SEQ ID NO: 69] is 3-fold higher in “CLR/RAMP3 EC50” value: 0.2 nM for the first, 0.6 nM for the second.

First: miniPEG-KGCRFGTCTVQKLAHQIYQFTDKDVAPRSKISPQGY-NH2 (ends and bridges not checked; also: K(PAL), position not given here) [SEQ ID NO: 101]
Second: miniPEG-KGCRFGTCTVQKLAHQIYQFTDKDKDNSAPVDPSSPHSY-NH2 (cysteine pairing not given here; also: K(PAL) present, lysine not given here) [SEQ ID NO: 28]
The “CLR/RAMP3 EC50” value of the first is 8.3-fold higher: 0.5 nM for the first, 0.06 nM for the second.

Biological target: T1, CLR/RAMP2 receptor
Assay: cell-based or functional assay
Remark: another data set of the same source

First: B1
Second: B4
The “CLR/RAMP2 IC50” value of the first is higher: 1.5 nM for the first, under 0.5 nM for the second.

Compared with B1, B4 is lower in “CLR/RAMP2 Max Activity (antagonist)” value: 100 % of positive controls for the first, 87 % of positive controls for the second.

Going from B2 to B3, the “CLR/RAMP2 EC50” value falls from 2 nM to 1 nM (2-fold).

With XLYENKPRRPYILKGCRFGTCTVQKLAHQIYQFTDKDVAPRSKISPQGY (Pyr(glu)- at N-terminus; miniPEG between LYENKPRRPYIL and K(PAL); K(PAL); -NH2) [NTSR1 and CLR/RAMP agonist MRL (SEQ ID NO: 223)] the “CLR/RAMP2 EC50” value was 1 nM.

Going from B2 to B3, the “CLR/RAMP2 Max Activity” value falls from 74 % of positive controls to 46 % of positive controls.

XLYENKPRRPYILKGCRFGTCTVQKLAHQIYQFTDKDVAPRSKISPQGY (Pyr(glu)- at N-terminus; miniPEG between LYENKPRRPYIL and K(PAL); K(PAL); -NH2) [NTSR1 and CLR/RAMP agonist MRL (SEQ ID NO: 223)] was tested, and the “CLR/RAMP2 Max Activity” value was 70 % of positive controls.

Biological target: T2, CLR/RAMP1 receptor
Assay: cell-based or functional assay
Remark: another data set of the same source

Going from B1 to B4, the “CLR/RAMP1 IC50” value rises from under 0.5 nM to 2 nM.

Going from B1 to B4, the “CLR/RAMP1 Max Activity (antagonist)” value rises from 99 % of positive controls to 102 % of positive controls.

B2 and XLYENKPRRPYILKGCRFGTCTVQKLAHQIYQFTDKDVAPRSKISPQGY (Pyr(glu)- at N-terminus; miniPEG between LYENKPRRPYIL and K(PAL); K(PAL); -NH2) [NTSR1 and CLR/RAMP agonist MRL (SEQ ID NO: 223)] are within 1.5-fold of each other in “CLR/RAMP1 EC50” value: 0.6 nM for the first, 0.8 nM for the second.

Compared with B2, XLYENKPRRPYILKGCRFGTCTVQKLAHQIYQFTDKDVAPRSKISPQGY (Pyr(glu)- at N-terminus; miniPEG between LYENKPRRPYIL and K(PAL); K(PAL); -NH2) [NTSR1 and CLR/RAMP agonist MRL (SEQ ID NO: 223)] is lower in “CLR/RAMP1 Max Activity” value: 130 % of positive controls for the first, 102 % of positive controls for the second.

These molecules were tested against neurotensin receptor 1 (NTSR1) (UniProt P30989 1-418, limits assumed) (assay: cell-based or functional assay).
Sequence of neurotensin receptor 1 (NTSR1) (P30989 whole entry): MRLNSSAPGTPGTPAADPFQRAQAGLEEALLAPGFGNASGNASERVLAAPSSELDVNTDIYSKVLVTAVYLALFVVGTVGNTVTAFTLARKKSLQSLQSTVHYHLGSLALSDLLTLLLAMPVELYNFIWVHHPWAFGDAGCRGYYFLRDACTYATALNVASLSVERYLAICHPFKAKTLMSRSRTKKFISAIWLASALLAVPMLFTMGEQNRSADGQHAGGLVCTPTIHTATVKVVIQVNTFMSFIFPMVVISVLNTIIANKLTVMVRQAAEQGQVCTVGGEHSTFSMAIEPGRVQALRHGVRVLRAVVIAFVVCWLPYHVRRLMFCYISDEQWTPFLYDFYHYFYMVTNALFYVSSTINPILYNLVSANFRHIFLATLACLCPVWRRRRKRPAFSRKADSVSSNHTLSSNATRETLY

For B1, the “NTSR1 EC50 (calcium flux assay)” value was 26 nM.

For B1, the “NTSR1 Max Activity” value was 57 % of positive controls.

Biological target: T1, CLR/RAMP2 receptor
Assay: cell-based or functional assay
Remark: another data set of the same source

Ace-VTHRLAGLLSRFTDKDKDNVAPRSKISPQGY-NH2 [SEQ ID NO: 115] was tested, and the “CLR/RAMP2 IC50” value was 117 nM.

With Palmitoyl-KVQKLNFVPTNVGSKAF-NH2 [SEQ ID NO: 142] the “CLR/RAMP2 Max Activity (antagonist)” value was 80 % of positive control.

Biological target: T2, CLR/RAMP1 receptor
Assay: cell-based or functional assay
Remark: another data set of the same source

Ace-VTHRLAGLLSRFTDKDKDNVAPRSKISPQGY-NH2 [SEQ ID NO: 115] was tested, and the “CLR/RAMP1 IC50” value was 1880 nM.

With Palmitoyl-KVQKLNFVPTNVGSKAF-NH2 [SEQ ID NO: 142] the “CLR/RAMP1 Max Activity (antagonist)” value was 100 % of positive control.

Biological target: T3, CLR/RAMP3 receptor
Assay: cell-based or functional assay
Remark: another data set of the same source

For Ace-VTHRLAGLLSRFTDKDKDNVAPRSKISPQGY-NH2 [SEQ ID NO: 115], the “CLR/RAMP3 IC50” value was 115 nM.
